Laboratory results published in article doi:10.1101/2023.07.20.549950.

T1: RBM15 RRM23 (UniProt Q96T37 374-529)
T1 sequence: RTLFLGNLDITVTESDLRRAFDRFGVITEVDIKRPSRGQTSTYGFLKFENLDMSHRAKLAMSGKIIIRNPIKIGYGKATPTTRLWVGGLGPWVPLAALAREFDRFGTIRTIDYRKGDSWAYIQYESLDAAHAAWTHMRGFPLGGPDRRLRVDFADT

T2: RBM15 RRM3 (UniProt Q96T37 455-529)
T2 sequence: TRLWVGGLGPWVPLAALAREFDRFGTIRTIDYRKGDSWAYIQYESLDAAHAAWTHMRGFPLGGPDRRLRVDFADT

T3: RBM15 RRM123 (UniProt Q96T37 170-529)
T3 sequence: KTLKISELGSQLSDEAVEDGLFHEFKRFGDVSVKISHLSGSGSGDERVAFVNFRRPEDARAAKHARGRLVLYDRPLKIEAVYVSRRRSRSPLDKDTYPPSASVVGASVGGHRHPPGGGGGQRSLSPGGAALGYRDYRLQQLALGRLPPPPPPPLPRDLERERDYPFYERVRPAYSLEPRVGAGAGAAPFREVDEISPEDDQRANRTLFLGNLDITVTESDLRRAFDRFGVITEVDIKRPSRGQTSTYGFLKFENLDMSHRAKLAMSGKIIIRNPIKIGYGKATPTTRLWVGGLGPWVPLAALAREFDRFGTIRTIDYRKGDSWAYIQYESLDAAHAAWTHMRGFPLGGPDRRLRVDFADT

T4: RBM15 RRM12 (UniProt Q96T37 170-451)
T4 sequence: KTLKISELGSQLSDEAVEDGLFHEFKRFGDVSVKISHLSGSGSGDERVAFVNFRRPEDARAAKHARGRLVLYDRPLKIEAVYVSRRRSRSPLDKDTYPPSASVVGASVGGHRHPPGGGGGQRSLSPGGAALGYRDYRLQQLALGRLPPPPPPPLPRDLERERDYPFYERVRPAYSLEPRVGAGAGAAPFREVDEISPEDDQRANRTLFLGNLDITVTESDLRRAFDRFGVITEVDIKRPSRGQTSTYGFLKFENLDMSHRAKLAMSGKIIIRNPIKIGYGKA

T5: RBM15 RRM1 (UniProt Q96T37 170-252)
T5 sequence: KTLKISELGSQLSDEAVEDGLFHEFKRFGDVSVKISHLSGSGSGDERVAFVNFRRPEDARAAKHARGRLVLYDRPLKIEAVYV

B1: XIST A-repeat stem-loop (32nt) (structured_RNA)
RNA: GGCCAACACUCUGGCCCAUCGGGGUGACGGCC
B2: FIRRE RRD stem-loop (19nt) (structured_RNA)
RNA: GGUUCUUGAAAAGAGGACC

How the values were obtained:
Assay in all cases: filter binding
RBM15 RRM23 = molecular target: T1, RBM15 RRM23
RBM15 RRM3 = molecular target: T2, RBM15 RRM3
RBM15 RRM123 = molecular target: T3, RBM15 RRM123
RBM15 RRM12 = molecular target: T4, RBM15 RRM12
RBM15 RRM1 = molecular target: T5, RBM15 RRM1

Binder | Kd (RBM15 RRM23) | Kd (RBM15 RRM3) | Kd (RBM15 RRM123) | Kd (RBM15 RRM12) | Kd (RBM15 RRM1)
B1 | 50 nM | ~100 nM | 79 nM | 71 nM | 433 nM
B2 | 99 nM | ~100 nM | ~100 nM | 184 nM | 370 nM
